Laboratory results: the DeepSol protein solubility set

Experiment: soluble on expression in E. coli; label from the status in PepcDB or PDB records

| Sequence | soluble on expression in E. coli |
| --- | --- |
| MSLKRVLAAEYVRMSTEHQKYSLDNQSEYIREYSLRNNITIIHTYNDAGKSGLNISGRPGLKALLDDVINKKITISAILVYDVSRFGRFQDADEAGHYSHLLRKNGVKIIYCAEPFSEEHPEMFMLGLSFSRHGAASYSRNLSEKVFLGQVNLIKRGYHQGGVAGYGLRRLLIDEHEGHHHHHH | not soluble |
| AHHHHHHGSRYVKLPKENTYEFLERLKDWGKLYAPVKISDKFYDFREIDDVRKIEFHYNRTIMPPKKFFFKPREKLFEFDISKPEYREVIEEVEPFIIFGVHACDIYGLKILDTVYLDEFPDKYYKVRREKGIIIGISCMPDEYCFCNLRETDFADDGFDLFFHELPDGWLVRVGTPTGHRLVDKNIKLFEEVTDKDICAFRDFEKRRQQAFKYHEDWGNLRYLLELEMEHPMWDEEADKCLACGICNTTCPTCRCYEVQDIVNLDGVTGYRERRWDSCQFRSHGLVAGGHNFRPTKKDRFRNRYLCKNAYNEKLGLSYCVGCGRCTAFCPANISFVGNLRRILGLEENKCPPTVSEEIPKRGFAYSSNIRGDGV | not soluble |
| MKTTGAGQLGTQLGKIKTSLRQQIHTGVVSQGQKLPSERELSELFSTTRITIKDALVSLETEGLIYREERRGWYVSPERICYNPLSRSHFHQMIREQHRIAATQLISVRSEMAAGDYAKALDIEQMTPIHIIERLRCIDGRAVLFVENVLKASLFDGILAENLTMSLTGIYREKYGYETMRSRFDVIPTSAPAHVAKALNLAEGQPVLKICRVNYKQDGELMDCELEYWRPDAVMIRIDSVG | not soluble |
| MSLKITAVKCILLSCPYAIPGDLEREFCFADGHRTISVIKVETDEGIHGLGETYIGVFAPEATQAIVRQLEVDLVGRDPMDTAGIANILKLATYYWGRFGMSASIAGGIEMALWDLKGKALGVPVHQLLGGKVHDHIPAYASGGNNKPFPELKKELLGYKKLGFGAVKIRINYLEPHEIIEKVAYSREVLGDKTGLGVDACQGVNPKAWNYKEAIGIVRSLEPYKLLFVEEPCEVTDYKGFAKIRAETDCVIAGGETVSSLVEAENYLEAGALDLFQPDAAIIGGISAFRRVAQMCERKFIKLAVHTWAGGVGIMGNYHAAFASPNCTLLELPNNPFPLREEFLVQPLTLVNGGIAAPTAPGLGVEGHHHHHH | soluble |
| MGSDKIHHHHHHMMLVQLRQVGVIRSPYKNFSKAPHQGRFSKETVEIEIFPEFEDGLKDIETCTHLIVLYWLDRANRDALLVVPPHDSREHGVFATRSPHRPNPIGFAVVELLERDGRVLKVKGLDALDGTPVVDIKPYSSTIDSVGNAKIGWFEEANPQSKLTRLLLRAKEFHGHICPFVALGVRMSVIAMEKLGVEEDAMASVGEDILAIVECNNCLTDGVQVATGCTLGNNSLIYLDLGKNALTIVRRKDWKGVRVYVNAENVRKYFSKEALELFNKVIVRREGSEEDAKRLSEFWEETGWKMLEIPEEEFKVEFVEVQPIERAPIFENKRCEKCGELAMATRVKDGLCLRCAGSYYAVVGRGIVKFDGEMREVV | not soluble |
| DAPAGGNAFEEMEKHAKEFQKTFSEQFNSLVNSKNTQDFNKALKDGSDSVLQQLSAFSSSLQGAISDANGKAKEALEQARQNVEKTAEELRKAHPDVEKEANAFKDKLQAAVQTTVQESQKLAKEVASNMEETNKKLAPKIKQAYDDFVKHAEEVQKKLHEAATKQ | soluble |
| MGSDKIHHHHHHMKYSPASETIFVADNQERTMRVEVMEHYGLTQSIEQAGYYETAHHKQLMKDIKGAIREGRLIAVCGVVGSGKTVTLRRLQQQLLDENKIIVARSLSVDKQSVRLATLINALFYDLAQDKQVQIHKQGERRERELQELVKKGKRPVALFVDEAHDLNGNTLTGLKRLMEVVEDGGGRLSVVLAGHPKLRNDLRRPTMEEIGYRTDIFTLDGITGSQREYIQWLLKTSTGKGKPEDILTTEAVDLLAMKLRTPLQVQLHLTLAMEAGYQTGEKPITATLVESVLSRQLDDLEPTLTRHGYRLKDMVEQFDAKPAEIRALFNNQLDPARTAELRDRMLAVGLPI | not soluble |
| MGTKTKKTLFNVDEQMKAIAAQFETLQILNEKGEVVNEAAMPELSDDQLKELMRRMVYTRVLDQRSISLNRQGRLGFYAPTAGQEASQLASHFALEAEDFILPGYRDVPQLVWHGLPLYQAFLFSRGHFMGNQMPENVNALAPQIIIGAQIIQTAGVALGMKLRGKKSVAITYTGDGGASQGDFYEGMNFAGAFKAPAIFVVQNNRYAISTPVEKQSAAKTVAQKAVAAGIYGIQVDGMDPLAVYAATAFARERAVNGEGPTLIETLTFRYGPHTMAGDDPTRYRTKDIENEWEQKDPIVRFRAFLENKGLWSQEVEEKVIEEAKEDIKQAIAKADQAPKQKVTDLMEIMYEKMPYNLAEQYEIYKEKESK | not soluble |
| MIRQVIQRISNPEASIESLQERRFWLQCERAYTWQPIYQTCGRLMAVELLTVVTHPLNPSQRLPPDRYFTEITVSHRMEVVKEQIDLLAQKADFFIEHGLLASVNIDGPTLIALRQQPKILRQIERLPWLRFELVEHIRLPKDSTFASMCEFGPLWLDDFGTGMANFSALSEVRYDYIKIARELFVMLRQSPEGRTLFSQLLHLMNRYCRGVIVEGVETPEEWRDVQNSPAFAAQGWFLSRPAPIETLNTAVLAL | not soluble |
| MQGVPSNEPMLGQLTDNGRAAEAGLKEGDYIQSINGEKMRSWTDIVSAVKENPEKEMDVAVKRDNKTLHISVTPEAVKDENKKTIGRFGSYAPTEKGVLSAVAYGATSTVDVTKAILTNLSKLVTGQFKLDMLSGPVGIYDMTDQVAKTGI | not soluble |
| MSPLTTFLTDAQQQTLHQLIVSARDSGANEEMVKESMDEYLAQILSPDRLQELKTAHDEFEAQRRGKRAAISASDKPEPKKVFDIIDQFTSDYQKFYEESSAVRNRNNIN | soluble |
| MNKVIKMLVVTLAFLLVLAGCSGNSNKQSSDNKDKETTSIKHAMGTTEIKGKPKRVVTLYQGATDVAVSLGVKPVGAVESWTQKPKFEYIKNDLKDTKIVGQEPAPNLEEISKLKPDLIVASKVRNEKVYDQLSKIAPTVSTDTVFKFKDTTKLMGKALGKEKEAEDLLKKYDDKVAAFQKDAKAKYKDAWPLKASVVNFRADHTRIYAGGYAGEILNDLGFKRNKDLQKQVDNGKDIIQLTSKESIPLMNADHIFVVKSDPNAKDAALVKKTESEWTSSKEWKNLDAVKNNQVSDDLDEITWNLAGGYKSSLKLIDDLYEKLNIEKQSK | not soluble |
| MSLEVKVGLAPMAGYTDSAFRTLAFEWGADFAFSEMVSAKGFLMNSQKTEELLPQPHERNVAVQIFGSEPNELSEAARILSEKYKWIDLNAGCPVRKVVKEGAGGALLKDLRHFRYIVRELRKSVSGKFSVKTRLGWEKNEVEEIYRILVEEGVDEVFIHTRTVVQSFTGRAEWKALSVLEKRIPTFVSGDIFTPEDAKRALEESGCDGLLVARGAIGRPWIFKQIKDFLRSGKYSEPSREEILRTFERHLELLIKTKGERKAVVEMRKFLAGYTKDLKGARRFREKVMKIEEVQILKEMFYNFIKEVEGGSHHHHHH | soluble |
| GMSRSPFQTFVWRSEIFECQSTDIQRFYSLLAIETERLGLGSKILGQAGHHPLYLLQSPGQKAGLPNLLISAGFHGEESAGPWGLLHFLSQLDGELFKRVNLSVLPLVNPTGFAKGHRFNELGENPNRGFFIENGKAKPGADTSAEGRILLEHAHLLQVASRDGILTCHEDVLMTDTYVYTFEPSQAPGRFSHSLRDALGQYFPIAADGDVDNCPVRSGVIFNHFDTSFESFLVRSGARVGCCSETPGQQPLDQRILANAAAMNTFVNMLAPELS | soluble |
| MGHHHHHHSHMEVVLPLDPAVPAPLCPHGPTLLFVKVTQGKEETRRFYACSACRDRKDCNFFQWEDEKLSGARLAAREAHNRRCQPPLSRTQCVERYLKFIELPLTQRKFCQTCQQLLLPDDWGQHSEHQVLGNVSITQLRRPSQLLYPLENKKTNAQYLFADRSCQFLVDLLSALGFRRVLCVGTPRLHELIKLTASGDKKSNIKSLLLDIDFR | not soluble |
| MSLSDFLILSDPDLDTLGITTDEIQTALEAAIRAQIRATVHVAPKSALLPGDGRYVMTTLATGNSPALTVVKSVMVSPDNPARGLPGTEGVLLVQDSETGQLRALMQAGWITRMRTAGLSALVARRLGDPAARVVAFIGAGAQARAHLAALCDLFPLQRAVILGRGAENIARLSAAARARGLQAEIADNPHQAIADADLVVSSVTLDHQMTPFLDARWLKPGAFASLTDTGLPWQPDGMAALDPLYIDDLAQEAANPRPMIDPARVGGDLAALLGEDLHSTNVNRHDPSRRAGFLFRGPAIADFALAALALHRAQSLGAGRDTAWPDATREGHHHHHH | soluble |
| MPDESAQVRFLIVGRTGWIANMVAELLEQRGERYAFASFRLEQREACELELDALRPQRVLNCAGVTGRPNVDWCEDHRRETVRSNVLGVLNLADCCASRGIHLTNFATGCLYHYDDGEHRPTAEGGRPFTEDDPPNFFGSYYSRTKAMVEELLRSAFDNVLILRLRMPVSDDLSPRSFVAKIARYEKVVNIPNSMTVLTELLPVALDMSERGLTGVYNFTNPGSISHNEVLELYRKYIDPKFQWKNFTLEEQAKILKAGRSNCELDVRKLLRDNPGAQIREVHAAMEEVFRRMQAKGVKPLAAP | not soluble |
| MTAPLPLDWTFPYVSQRMPALGENMVCTEQPLANQAAMRMLAAGGNAVDAAIAAAITMTVVGPCMNGIGGDLFAIIWDGRQLHGLNASGRAPQAWTREYFSRHDAMPARGWDAVTVPGAVSGWVALSRKFGKLDFARLFEPALHYARHGFLVTPITARQWADQAEPIMQGPGFRDAFAPNGRTPQPGERFICPGQADTLQDIADTHGESFYRGALAARIAAFARETGGALTKADLAAHQADWVDPIGAQYGELTLHEIGPSGQGIGALMALGMLDGLSGKLGQPDSTDFYHYQIEAMKLAFADINRYVADPASMREVSAEMLLDRAYLATRAGAIDPAEARYPGPGKPHNGGTTYLTAADADGMMVSLIQSNFKGFGSGVVVPGTGIALHNRGWGFNLIEGHPNEVGPGKRPFHTIIPGFLMRDGEPLMSFGVMGGSLQAQGHVQVTVRTAAGQNPQAIVDAPRWRILEDNRTVMVEWNFPDAAVAGLRERGHAVTVAPRFSDEFGGSQAIMRIEGGYLGASDHRKDGQASALLEHHHHHH | not soluble |
| SDDKPNPEALSDSSERLFSFGVIADVQFADLEDGFNFQGTRRRYYRHSLLHLQGAIEDWNNESSMPCCVLQLGDIIDGYNAQYNASKKSLELVMDMFKRLKVPVHHTWGNHEFYNFSREYLTHSKLNTKFLEDQIVHHPETMPSEDYYAYHFVPFPKFRFILLDAYDLSVLGVDQSSPKYEQCMKILREHNPNTELNSPQGELFL | soluble |
| MGSDKIHHHHHHMSDSEKSNSRLFDLDLLRAIVTVADCGSFTTAAARLHSTQSTVSQKVRRLEEMAGHRLLERGNRDVLPTDAGDTLLGYARRLLALNDELAEALSGATVALTVRIGVPDDFAAGRTTERLAAFNRRYPQVKLEVTSGMSRDLSASYDRGELDLVLLKQRRASREALACWPEKTCWVDSARNPCIDLDPLPIVTFPPRGVYRDEMIAALEAVGRRWHISFTSSSLSGLQSAIADGMGIGLLPLRAVSAGHAVLPKNVGLPAVDVFEVALLHRPAADPMVKALARVLSRVLAEDTRSRPAFEK | not soluble |
| MAASTFFIPSVNVIGADSLTDAMNMMADYGFTRTLIVTDNMLTKLGMAGDVQKALEERNIFSVIYDGTQPNPTTENVAAGLKLLKENNCDSVISLGGGSPHDCAKGIALVAANGGDIRDYEGVDRSAKPQLPMIAINTTAGTASEMTRFCIITDEARHIKMAIVDKHVTPLLSVNDSSLMIGMPKSLTAATGMDALTHAIEAYVSIAATPITDACALKAVTMIAENLPLAVEDGSNAKAREAMAYAQFLAGMAFNNASLGYVHAMAHQLGGFYNLPHGVCNAVLLPHVQVFNSKVAAARLRDCAAAMGVNVTGKNDAEGAEACINAIRELAKKVDIPAGLRDLNVKEEDFAVLATNALKDACGFTNPIQATHEEIVAIYAAR | not soluble |
